# Measurements published in PMC9098913, “In vitro reconstitution of Escherichia coli divisome activation” (Nature Communications, 2022).
# Where two headings read alike, the source gives them in different places.
# B1: FtsA R286W (protein)
# chain: MIKATDRKLVVGLEIGTAKVAALVGEVLPDGMVNIIGVGSCPSRGMDKGGVNDLESVVKCVQRAIDQAELMADCQISSVYLALSGKHISCQNEIGMVPISEEEVTQEDVENVVHTAKSVRVRDEHRVLHVIPQEYAIDYQEGIKNPVGLSGVRMQAKVHLITCHNDMAKNIVKAVERCGLKVDQLIFAGLASSYSVLTEDERELGVCVVDIGGGTMDIAVYTGGALRHTKVIPYAGNVVTSDIAYAFGTPPSDAEAIKVRHGCALGSIVGKDESVEVPSVGGRPPWSLQRQTLAEVIEPRYTELLNLVNEEILQLQEKLRQQGVKHHLAAGIVLTGGAAQIEGLAACAQRVFHTQVRIGAPLNITGLTDYAQEPYYSTAVGLLHYGKESHLNGEAEVEKRVTASVGSWIKRLNSWLRKEF
# modifications: Cy3 or Cy5 at the N-terminus in the labelled form (labelled CLEPTGG peptide conjugated to the 5xGly tag by sortagging); unlabelled protein also used; left off: TwinStrep-SUMO, N-terminal, cleaved | 5x
# Experiments:
# [1] = Membrane off-binding rate (koff) of FtsA from FRAP
# Source text: We could also use the data from these bleaching experiments to quantify the membrane-binding kinetics and diffusion of membrane-bound proteins by analysing the change of the fluorescence profile during recovery.
# Equimolar concentrations of Cy3- and Cy5-labelled FtsA, supplemented with 20% unlabelled FtsA were used to study FRET and FRAP. Five pre-bleach frames were acquired, followed by acceptor photobleaching of a rectangular ROI with 40% 641 nm laser power and a dwell size of 1 µs/pixel, 75% overlapping lines. The recovery of the signal or the increase in donor intensity were measured with either two frames or one frame per second.
# Bleaching the acceptor dye leads to an increase in the donor intensity, which can be used to quantify the Foerster Resonance energy transfer (FRET)[48]. FRET efficiency was quantified with E%=Ipost/Ipost+Ipre⋅100 , where Ipost is the intensity of the […] and Ipre is the […]. […] To extract the contribution of both processes, we adjusted a routine recently published by Gerganova et al.[33]. In short, the code provides the contribution of both modes of recovery by analysing the shape of the fluorescence recovery profile. […] Contribution of diffusion leads to a change of the slope of the outer borders of the bleached region (S4h right). Thus, by measuring the change of the slope of the border recovery, diffusion and simple on/off binding can be distinguished. We developed “FRAPdiff”, a graphical user interface, which uses the original fit routine by David Rutkowski. It can be used directly on.tiff movies with annotated bleach regions as ImageJ ROIs. In addition, we added optional bleach correction, user selectable projection axis (x or y), and optional mirroring of the recovery profiles, if bleaching was not symmetric. The original fit routine for estimating the recovery and diffusion dynamics can be found at https://github.com/davidmrutkowski/1DReflectingDiffusion. FRAPdiff is available at 10.5281/zenodo.6400639[49] under the GPLv3 open-source license.
# FtsZ [2] = details: His-tagged FtsA
# Protocol: (§1) Co-treadmilling of FtsA with FtsZ relies on the dynamic exchange of FtsA on the membrane. […] To investigate the respective contributions of membrane binding kinetics and FtsA self-interaction on the colocalization dynamics with FtsZ, we wanted to create variants of the two FtsA proteins that are permanently attached to the membrane. […] Accordingly, in these experiments the proteins only differ in their tendency to form oligomers.
# (§2) To study colocalization of His-tagged variants of FtsA, 0.5–1 µM of Cy5 labelled His-tagged FtsAs were added to the chamber, incubated for 20 min and washed 6x with reaction buffer. […] To control the density of membrane-bound FtsA, SUVs without and with Tris-NTA lipids were mixed to obtain the respective Tris-NTA concentrations. To perform FRET/FRAP experiments, equimolar concentrations of Cy3 and Cy5 labelled His-tagged FtsAs (total 0.5–1 µM) or His-SUMO-Cys were added to a chamber and treated as above. […] FRAP experiments were performed as described before.
# Time-lapse videos were first intensity-corrected and contrast-enhanced to avoid bleaching effects and simplify subsequent analysis. To remove contributions of X–Y drift, the videos were processed with the Linear Stack Alignment with SIFT plugin. Proper alignment was checked with the 3TP align plugin (J. A. Parker; Beth Israel Deaconess Medical Center, Boston). Subsequently, regions of interest (ROIs) in the center of the stacks were chosen for colocalization analysis. The Pearson’s correlation coefficient (PCC) was quantified with the Image CorrelationJ 1o plugin. To extract information about the relative ratio of FtsZ/FtsA molecules (slope of linear regression), we also used the Image CorrelationJ 1o plugin. As an output, the plugin provides a scatterplot of FtsZ vs FtsA intensities, to which we fitted a linear slope y=k⋅x+d , where k is the slope and d the offset. The slope was used as an estimate for the ratio of FtsA molecules below FtsZ filaments.
# FtsZ [3] = details: His-tagged FtsA; remark: listed apart in the source
# Protocol: as §1, §2
# Treadmilling dynamics, were quantified using an automated image analysis protocol previously developed by our group. To visualize colocalization of the co-treadmilling FtsZ & FtsA filaments, we used dual-colour videos obtained at an acquisition rate of one frame per 2 s. The two channels were aligned using FIJI’s 3TP align plugin. Both channels were then subjected to the image subtraction protocol and colocalization was measured as described above.
# [4] = 0.60% Tris NTA, Exp. 2 (statistical analysis)
# [5] = 0.80% Tris NTA, Exp. 1 (statistical analysis)
# [6] = 0.80% Tris NTA, Exp. 2 (statistical analysis)
# [7] = 0.80% Tris NTA, Exp. 3 (statistical analysis)
# [8] = 1.00% Tris NTA, Exp. 1 (statistical analysis)
# [9] = 1.00% Tris NTA, Exp. 2 (statistical analysis)
# [10] = 1.00% Tris NTA, Exp. 3 (statistical analysis)
# [11] = 2.00% Tris NTA, Exp. 1 (statistical analysis)
# [12] = 2.00% Tris NTA, Exp. 2 (statistical analysis)
# [13] = 2.00% Tris NTA, Exp. 3 (statistical analysis)
# [14] = […] Tris NTA, Exp. 1 (statistical analysis)
# [15] = […] Tris NTA, Exp. 3 (statistical analysis)
molecule,measurement,setting,value
B1,Off binding rate,"[1]; 0.4µM, + FtsN, replicate Exp.5",1.01E-01
same,Off binding rate,"[1]; 0.4µM, + FtsN, replicate Exp.6",2.02E-01
same,Off binding rate,"[1]; 0.4µM, + FtsZ, Mean, n=8",0.1794
same,Off binding rate,"[1]; 0.4µM, + FtsZ, replicate Exp.1",1.34E-01
same,Off binding rate,"[1]; 0.4µM, + FtsZ, replicate Exp.2",2.29E-01
same,Off binding rate,"[1]; 0.4µM, + FtsZ, replicate Exp.3",1.49E-01
same,Off binding rate,"[1]; 0.4µM, + FtsZ, replicate Exp.4",2.39E-01
same,Off binding rate,"[1]; 0.4µM, + FtsZ, replicate Exp.5",1.49E-01
same,Off binding rate,"[1]; 0.4µM, + FtsZ, replicate Exp.6",1.15E-01
same,Off binding rate,"[1]; 0.4µM, + FtsZ, replicate Exp.7",3.30E-01
same,Off binding rate,"[1]; 0.4µM, + FtsZ, replicate Exp.8",8.97E-02
same,"Off binding rate, mean",[1]; 0.8 µM FtsA + FtsN&Z,0.0945 s
same,"Off binding rate, mean",[1]; 0.8 µM FtsA + FtsN,0.188 s
same,"Off binding rate, mean",[1]; 0.8 µM FtsA + FtsZ,0.161 s
same,Off binding rate,"[1]; 0.8µM FtsA alone, Mean, n=8",0.3865
same,"Off binding rate, mean",[1]; 0.8 µM FtsA alone,0.386 s
same,Off binding rate,"[1]; 0.8µM FtsA alone, replicate Exp.1",6.04E-01
same,Off binding rate,"[1]; 0.8µM FtsA alone, replicate Exp.2",6.73E-01
same,Off binding rate,"[1]; 0.8µM FtsA alone, replicate Exp.3",7.27E-01
same,Off binding rate,"[1]; 0.8µM FtsA alone, replicate Exp.4",1.48E-01
same,Off binding rate,"[1]; 0.8µM FtsA alone, replicate Exp.5",5.66E-01
same,Off binding rate,"[1]; 0.8µM FtsA alone, replicate Exp.6",9.49E-02
same,Off binding rate,"[1]; 0.8µM FtsA alone, replicate Exp.7",1.46E-01
same,Off binding rate,"[1]; 0.8µM FtsA alone, replicate Exp.8",1.33E-01
same,Off binding rate,"[1]; 0.8µM, + FtsN&Z, Mean, n=4",0.0945
same,Off binding rate,"[1]; 0.8µM, + FtsN&Z, replicate Exp.1",3.85E-02
same,Off binding rate,"[1]; 0.8µM, + FtsN&Z, replicate Exp.2",2.22E-01
same,Off binding rate,"[1]; 0.8µM, + FtsN&Z, replicate Exp.3",6.03E-02
same,Off binding rate,"[1]; 0.8µM, + FtsN&Z, replicate Exp.4",5.77E-02
same,Off binding rate,"[1]; 0.8µM, + FtsN, Mean, n=3",0.1881
same,Off binding rate,"[1]; 0.8µM, + FtsN, replicate Exp.1",7.35E-02
same,Off binding rate,"[1]; 0.8µM, + FtsN, replicate Exp.2",3.72E-01
same,Off binding rate,"[1]; 0.8µM, + FtsN, replicate Exp.3",1.19E-01
same,Off binding rate,"[1]; 0.8µM, + FtsZ, Mean, n=8",0.1609
same,Off binding rate,"[1]; 0.8µM, + FtsZ, replicate Exp.1",2.88E-01
same,Off binding rate,"[1]; 0.8µM, + FtsZ, replicate Exp.2",1.14E-01
same,Off binding rate,"[1]; 0.8µM, + FtsZ, replicate Exp.3",2.71E-01
same,Off binding rate,"[1]; 0.8µM, + FtsZ, replicate Exp.4",1.12E-01
same,Off binding rate,"[1]; 0.8µM, + FtsZ, replicate Exp.5",1.44E-01
same,Off binding rate,"[1]; 0.8µM, + FtsZ, replicate Exp.6",1.39E-01
same,Off binding rate,"[1]; 0.8µM, + FtsZ, replicate Exp.7",1.37E-01
same,Off binding rate,"[1]; 0.8µM, + FtsZ, replicate Exp.8",8.23E-02
same,Off binding rate,"[1]; Fig. S3i/S3j, 0.10 µM FtsA, summary value",0.326 s⁻¹
same,Off binding rate,"[1]; Fig. S3i/S3j, 0.20 µM FtsA, summary value",0.251 s⁻¹
same,Off binding rate,"[1]; Fig. S3i/S3j, 0.40 µM FtsA, summary value",0.374 s⁻¹
same,Off binding rate,"[1]; Fig. S3i/S3j, 0.80 µM FtsA, summary value",0.386 s⁻¹
same,membrane off-rate,[1]; in the presence of FtsZ,around 0.20 s^−1
same,PCC,FtsZ [2]; [4],0.65
same,"PCC, Mean","FtsZ [2]; 0.60% Tris NTA, n = 2 (WT), 3 (R286W), sd 0.07, 0.08, p-value 0.39",0.56
same,PCC,FtsZ [2]; [5],0.79
same,PCC,FtsZ [2]; [6],0.63
same,PCC,FtsZ [2]; [7],0.69
same,"PCC, Mean","FtsZ [2]; 0.80% Tris NTA, n = 3, 3, sd 0.0141 (WT), 0.0648 (R286W), p-value 0.61",0.70
same,PCC,FtsZ [2]; [8],0.78
same,PCC,FtsZ [2]; [9],0.71
same,PCC,FtsZ [2]; [10],0.72
same,"PCC, Mean","FtsZ [2]; 1.00% Tris NTA, n = 4 (WT), 3 (R286W), sd 0.08, 0.0316, p-value 6.25E-02",0.73
same,PCC,FtsZ [2]; [11],0.63
same,PCC,FtsZ [2]; [12],0.53
same,PCC,FtsZ [2]; [13],0.55
same,"PCC, Mean","FtsZ [2]; 2.00% Tris NTA, n = 3, 3, sd 0.0143 (WT), 0.04 (R286W), p-value 1.59E-04",0.57
same,PCC,FtsZ [2]; [14],0.60
same,PCC,"FtsZ [2]; […] Tris NTA, Exp. 2 (statistical analysis)",0.62
same,PCC,FtsZ [2]; [15],0.65
same,"PCC, Mean","FtsZ [2]; […] Tris NTA, n = 3, 3, sd 0.06 (WT), 0.02 (R286W), p-value 3.86E-04",0.63
same,Differential PCC,"FtsZ [3]; 0.60% Tris NTA, Exp. 1 (statistical analysis)",0.40
same,Differential PCC,FtsZ [3]; [4],0.46
same,Differential PCC,"FtsZ [3]; 0.60% Tris NTA, Exp. 3 (statistical analysis)",0.54
same,"Differential PCC, Mean","FtsZ [3]; 0.60% Tris NTA, n = 2 (WT), 3 (R286W), sd 0.02, 0.057, p-value 0.67",0.47
same,Differential PCC,FtsZ [3]; [5],0.57
same,Differential PCC,FtsZ [3]; [6],0.48
same,Differential PCC,FtsZ [3]; [7],0.66
same,"Differential PCC, Mean","FtsZ [3]; 0.80% Tris NTA, n = 3, 3, sd 0.05 (WT), 0.0749 (R286W), p-value 0.13",0.57
same,Differential PCC,FtsZ [3]; [8],0.60
same,Differential PCC,FtsZ [3]; [9],0.56
same,Differential PCC,FtsZ [3]; [10],0.51
same,"Differential PCC, Mean","FtsZ [3]; 1.00% Tris NTA, n = 3, 3, sd 0.12 (WT), 0.0377 (R286W), p-value 5.89E-02",0.56
same,Differential PCC,FtsZ [3]; [11],0.44
same,Differential PCC,FtsZ [3]; [12],0.34
same,Differential PCC,FtsZ [3]; [13],0.36
same,"Differential PCC, Mean","FtsZ [3]; 2.00% Tris NTA, n = 3, 3, sd 0.0469 (WT), 0.04 (R286W), p-value 2.27E-03",0.38
same,Differential PCC,FtsZ [3]; [14],0.34
same,Differential PCC,FtsZ [3]; [15],0.37
same,"Differential PCC, Mean","FtsZ [3]; […] Tris NTA, n = 3, 3, sd 0.0371 (WT), 0.02 (R286W), p-value 5.70E-04",0.36
